Consider 1 molecule from paper PMC12394151 (2025).

What all share (test): BLI
Background: In BLI a coated tip is dipped into the sample, and binding shifts an interference pattern.

In test [1] the target is GP01-Fc (llama (Lama glama)).
Test [2] addresses GP13-Fc (llama (Lama glama)).
Test [3] deals with GP20-Fc (llama (Lama glama)).
Test [4] concerns the target GP11-Fc (llama (Lama glama)).

B1: recombinant human gp130 with His-tag (Acro, ILT-H52H2) (receptor)
chain: ELLDPCGYISPESPVVQLHSNFTAVCVLKEKCMDYFHVNANYIVWKTNHFTIPKEQYTIINRTASSVTFTDIASLNIQLTCNILTFGQLEQNVYGITIISGLPPEKPKNLSCIVNEGKKMRCEWDGGRETHLETNFTLKSEWATHKFADCKAKRDTPTSCTVDYSTVYFVNIEVWVEAENALGKVTSDHINFDPVYKVKPNPPHNLSVINSEELSSILKLTWTNPSIKSVIILKYNIQYRTKDASTWSQIPPEDTASTRSSFTVQDLKPFTEYVFRIRCMKEDGKGYWSDWSEEASGITYEDRPSKAPSFWYKIDPSHTQGYRTVQLVWKTLPPFEANGKILDYEVTLTRWKSHLQNYTVNATKLTVNLTNDRYLATLTVRNLVGKSDAAVLTIPACDFQATHPVMDLKAFPKDNMLWVEWTTPRESVKKYILEWCVLSDKAPCITDWQQEDGTVHRTYLRGNLAESKCYLITVTPVYADGPGSPESIKAYLKQAPPSKGPTVRTKKVGKNEAVLEWDQLPVDVQNGFIRNYTIFYRTIIGNETAVNVDSSHTEYTLSSLTSDTLYMVRMAAYTDEGGKDGPEFTFTTPKFAQGEIE
In general, koff refers to a measure of how fast the partners let go of each other. Lower therefore signals slow dissociation. As to B1, the koff in test [1] is 0.00223 s⁻¹; in test [2], 0.00288 s⁻¹; in test [3], 0.000737 s⁻¹; in test [4], 0.00042 s⁻¹.
